Results from PMC8322156, “Nuclear condensates of p300 formed though the structured catalytic core can act as a storage pool of p300 with reduced HAT activity” (Nature Communications, 2021).
No end group written: not given here.

T1: SIRT2-treated p300_(BRPHZ) (catalytic core BD-RING-PHD-HAT-ZZ, aa 1035-1720 of p300), hypoacetylated (human, UniProt Q09472 1035-1720, on average 4 acetyl-lysines outside the AIL left after SIRT2 treatment (sites not given))
T1 construct: human p300, BD-RING-PHD-HAT-ZZ region (BRPHZ), amino acids 1035-1720; Heterogeneously acetylated; Vector pGEX-6P-1; also called SIRT2-deacetylated p300BRPHZ; deacetylated p300
T1 sequence (looked up): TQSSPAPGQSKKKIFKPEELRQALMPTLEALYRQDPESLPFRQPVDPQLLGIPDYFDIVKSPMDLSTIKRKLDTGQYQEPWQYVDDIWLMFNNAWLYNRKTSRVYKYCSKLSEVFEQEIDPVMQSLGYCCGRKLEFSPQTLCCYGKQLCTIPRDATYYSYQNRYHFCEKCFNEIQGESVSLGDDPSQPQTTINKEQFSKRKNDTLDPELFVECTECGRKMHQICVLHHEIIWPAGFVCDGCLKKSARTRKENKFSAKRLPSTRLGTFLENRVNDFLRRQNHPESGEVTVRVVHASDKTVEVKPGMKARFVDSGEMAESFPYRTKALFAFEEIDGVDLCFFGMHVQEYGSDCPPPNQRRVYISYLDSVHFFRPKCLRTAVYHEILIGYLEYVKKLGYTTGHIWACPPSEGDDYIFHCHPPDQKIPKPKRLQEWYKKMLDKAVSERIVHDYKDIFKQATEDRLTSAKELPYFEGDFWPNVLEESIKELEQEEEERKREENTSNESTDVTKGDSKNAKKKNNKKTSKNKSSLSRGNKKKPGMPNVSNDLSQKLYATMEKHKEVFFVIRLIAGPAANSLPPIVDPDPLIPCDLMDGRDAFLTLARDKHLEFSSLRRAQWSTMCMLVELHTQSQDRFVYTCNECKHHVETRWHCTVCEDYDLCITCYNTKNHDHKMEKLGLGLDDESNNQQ


Assays:
[1] = system: p300 BRPHZ, SIRT2-deacetylated (~4 Kac, outside the AIL) (human); test: EMSA; conditions: EMSA: 20 mM Tris-HCl pH 7.5, 50 mM NaCl (75 mM for NCP), 2 mM DTT, 5 min; 5% PAGE in 0.2x TBE (DNA) or 0.2x TB (NCP), 100 V, on ice; SYBR Gold
[2] = target: T1, SIRT2-treated p300_(BRPHZ) (catalytic …); test: recruitment of a labelled peptide into condensates (confocal microscopy); 13 uM SIRT2-treated p300 condensates (PEG-induced) mixed with 6 uM FAM-labeled H3 tail (aa 1-12); FAM alone as control; conditions: both partners purified

| binding result [2] | Molecule | Kd [1] |
| --- | --- | --- |
| – | 601 DNA 147 bp | 300 nM |
| binds | ARTKQTARKSTG (peptide, UniProt P68431 2-13, looked up, also: fluorescein (FAM) label, position not given here, histone H3 tail, residues 1-12, unmodified; also called FAM-H3; FAM-labeled H3_(1-12) peptide) [fluorescein (FAM)-labeled histone H3 tail peptide (residues 1-12 of H3)] | – |
